This is an account of results in patent USRE50880 (Kymab Limited, dated 2026).

The assay concerns the target Recombinant Human OX40L (Leader sequence, Isoleucine Zipper and FLAG Sequence Included) (human). Briefly: cell-based or functional assay.

Chain of Recombinant Human OX40L (Leader sequence, Isoleucine Zipper and FLAG Sequence Included) (human) (chain, as listed by the source limits assumed): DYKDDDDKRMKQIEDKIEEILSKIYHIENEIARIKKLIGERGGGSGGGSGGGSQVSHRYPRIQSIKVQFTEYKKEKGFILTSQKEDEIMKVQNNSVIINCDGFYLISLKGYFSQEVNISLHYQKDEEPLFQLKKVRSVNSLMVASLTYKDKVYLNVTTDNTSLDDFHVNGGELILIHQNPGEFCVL

B1: 2D10 (human) (antibody, human IgG4 S228P, kappa, V domains shown)
VH: EVQLVESGGGLVQPGGSLRLSCAASGFTFSNYAMNWVRQAPGKGLEWVSTISGSGGATRYADSVKGRFTISRDNSRNTVYLQMNSLRVEDTAVFYCTKDRLIMATVRGPYYYGMDVWGQGTTVTVSS
VL: DIQMTQSPSSLSASVGDRVTITCRASQSISSYLNWYQQKPGKAPNLLIYAASSLQSGVPSRFSGSGSETDFTLTISSLQPEDFATYYCQQSHSVSFTFGPGTKVDIKR
For B1, the “Primary T-cell Assay IC50 nM (recombinant OX40L induced IL2 release from primary human T cells)” value turned out to be 0.81 nM.

B2: 10A07 (human) (antibody, V domains shown)
VH: EVQLVESGGVLVQPGGSLRLSCAASGFTFSSYIMTWVRQAPGKGLEWVSGISGSGGGTYYADSMKGRFTISRDNSKNTLYLQMNSLRVEDTAVYYCAKDRLGPITLVRGGYYYGMDVWGQGTTVTVSS
VL: DIQMTQSPSSLSASVGDRVTITCRASQSISDYLNWYQQKPGKAPKFLIYAASSLQSGVPSRFSGSGSGTDFTLTVSSLQPEDFATYYCQQSYSTPRTFGQGTRVEIKR
For the molecule B2, the “Primary T-cell Assay IC50 nM (recombinant OX40L induced IL2 release from primary human T cells)” value is 0.83 nM.
